Measured values as given in US20230158141A1.

Assays:
His tagged CD20 protein = His tagged CD20 protein (UniProt P11836); assay: ELISA, His tagged CD20 protein
His tagged VEGF protein = His tagged VEGF protein (UniProt P15692); assay: ELISA, His tagged VEGF protein
His tagged VEGF protein, sequence (P15692 other isoform, or with tags, fused parts or gaps limits assumed): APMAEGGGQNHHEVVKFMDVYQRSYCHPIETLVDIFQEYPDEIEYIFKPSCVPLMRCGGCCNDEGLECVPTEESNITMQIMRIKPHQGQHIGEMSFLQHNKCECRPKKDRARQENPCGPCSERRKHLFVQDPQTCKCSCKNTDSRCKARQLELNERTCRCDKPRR

Binder | Blocking efficiency of S47 (His tagged CD20 protein) [fold] | Blocking efficiency of S47 (His tagged VEGF protein) [fold]
Beva-se002 conjugated to S47 (antibody, human IgG1, kappa, V domains shown, S47 on Cys 26) VH: EVQLVESGGGLVQPGGSLRLSCAASGYTFTNYGMNWVRQAPGKGLEWVGWINTYTGEPTYAADFKRRFTFSLDTSKSTAYLQMNSLRAEDTAVYYCAKYPHYYGSSHWYFDVWGQGTLVTVSS VL: DIQMTQSPSSLSASVGDRVTITCSACQDISNYLNWYQQKPGKAPKVLIYFTSSLHSGVPSRFSGSGSGTDFTLTISSLQPEDFATYYCQQYSTVPWTFGQGTKVEIKR | – | 16
Beva -se004 conjugated to S47 (antibody, human IgG1, kappa, V domains shown, S47 on Cys 51) VH: EVQLVESGGGLVQPGGSLRLSCAASGYTFTNYGMNWVRQAPGKGLEWVGWINTYTGEPTYAADFKRRFTFSLDTSKSTAYLQMNSLRAEDTAVYYCAKYPHYYGSSHWYFDVWGQGTLVTVSS VL: DIQMTQSPSSLSASVGDRVTITCSASQDISNYLNWYQQKPGKAPKVLIYFCSSLHSGVPSRFSGSGSGTDFTLTISSLQPEDFATYYCQQYSTVPWTFGQGTKVEIKR | – | 13

The next lines start with the values.

Blocking efficiency of S47 (His tagged CD20 protein) [fold] | Blocking efficiency of S47 (His tagged VEGF protein) [fold] | Binder
16 | – | Ritu-se001 conjugated to S47 (antibody, human IgG1, kappa, V domains shown, S47 on Cys 32) VH: QVQLQQPGAELVKPGASVKMSCKASGYTFTSCNMHWVKQTPGRGLEWIGAIYPGNGDTSYNQKFKGKATLTADKSSSTAYMQLSSLTSEDSAVYYCARSTYYGGDWYFNVWGAGTTVTVSA VL: QIVLSQSPAILSASPGEKVTMTCRASSSVSYIHWFQQKPGSSPKPWIYATSNLASGVPVRFSGSGSGTSYSLTISRVEAEDAATYYCQQWTSNPPTFGGGTKLEIKR
8 | – | Ritu-se002 conjugated to S47 (antibody, human IgG1, kappa, V domains shown, S47 on Cys 63) VH: QVQLQQPGAELVKPGASVKMSCKASGYTFTSYNMHWVKQTPGRGLEWIGAIYPGNGDTSYNQCFKGKATLTADKSSSTAYMQLSSLTSEDSAVYYCARSTYYGGDWYFNVWGAGTTVTVSA VL: QIVLSQSPAILSASPGEKVTMTCRASSSVSYIHWFQQKPGSSPKPWIYATSNLASGVPVRFSGSGSGTSYSLTISRVEAEDAATYYCQQWTSNPPTFGGGTKLEIKR
– | 26 | Beva-se003 conjugated to S47 (antibody, human IgG1, kappa, V domains shown, S47 on Cys 49) VH: EVQLVESGGGLVQPGGSLRLSCAASGYTFTNYGMNWVRQAPGKGLEWVGWINTYTGEPTYAADFKRRFTFSLDTSKSTAYLQMNSLRAEDTAVYYCAKYPHYYGSSHWYFDVWGQGTLVTVSS VL: DIQMTQSPSSLSASVGDRVTITCSASQDISNYLNWYQQKPGKAPKVLICFTSSLHSGVPSRFSGSGSGTDFTLTISSLQPEDFATYYCQQYSTVPWTFGQGTKVEIKR
